In this test the target is T1, Apaf-1 (human), O14727.
T1 chain: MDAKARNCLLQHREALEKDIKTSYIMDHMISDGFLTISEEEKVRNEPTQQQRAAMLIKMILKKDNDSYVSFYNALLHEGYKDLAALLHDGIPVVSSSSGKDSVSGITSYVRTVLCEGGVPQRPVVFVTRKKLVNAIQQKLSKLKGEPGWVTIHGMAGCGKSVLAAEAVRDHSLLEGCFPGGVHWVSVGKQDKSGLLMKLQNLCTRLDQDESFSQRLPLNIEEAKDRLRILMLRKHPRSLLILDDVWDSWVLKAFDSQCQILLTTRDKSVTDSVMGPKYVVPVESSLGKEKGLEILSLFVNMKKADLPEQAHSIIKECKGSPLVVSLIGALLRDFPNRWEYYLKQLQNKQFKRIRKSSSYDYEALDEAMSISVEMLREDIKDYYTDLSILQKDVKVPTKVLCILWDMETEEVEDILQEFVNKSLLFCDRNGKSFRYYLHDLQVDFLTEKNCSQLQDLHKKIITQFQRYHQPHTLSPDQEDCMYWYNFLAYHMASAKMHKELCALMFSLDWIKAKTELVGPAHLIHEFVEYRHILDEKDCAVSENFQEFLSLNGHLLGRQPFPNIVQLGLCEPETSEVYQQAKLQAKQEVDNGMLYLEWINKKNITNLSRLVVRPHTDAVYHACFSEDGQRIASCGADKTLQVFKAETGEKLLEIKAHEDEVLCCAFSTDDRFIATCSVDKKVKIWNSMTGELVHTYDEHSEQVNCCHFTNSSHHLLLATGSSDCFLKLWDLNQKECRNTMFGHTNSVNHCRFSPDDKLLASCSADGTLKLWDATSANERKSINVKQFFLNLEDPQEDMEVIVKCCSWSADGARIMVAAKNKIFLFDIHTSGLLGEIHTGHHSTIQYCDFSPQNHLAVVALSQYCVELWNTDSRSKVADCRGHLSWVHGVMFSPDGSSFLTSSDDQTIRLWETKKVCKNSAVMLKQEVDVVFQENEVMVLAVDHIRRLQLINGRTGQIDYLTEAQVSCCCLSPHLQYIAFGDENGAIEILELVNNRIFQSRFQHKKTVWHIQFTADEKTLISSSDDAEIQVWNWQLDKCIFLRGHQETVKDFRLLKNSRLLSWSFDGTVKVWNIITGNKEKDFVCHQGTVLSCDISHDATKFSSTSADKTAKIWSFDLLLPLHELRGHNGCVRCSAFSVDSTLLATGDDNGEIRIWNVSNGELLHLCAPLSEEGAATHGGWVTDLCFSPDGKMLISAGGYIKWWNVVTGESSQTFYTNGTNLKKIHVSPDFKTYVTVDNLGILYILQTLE
Kind of test: cryo-EM structure. Conditions: remark: other sources report otherwise.

B1: Apaf-1, O14727 1-1248 (natural protein)
chain: MDAKARNCLLQHREALEKDIKTSYIMDHMISDGFLTISEEEKVRNEPTQQQRAAMLIKMILKKDNDSYVSFYNALLHEGYKDLAALLHDGIPVVSSSSGKDSVSGITSYVRTVLCEGGVPQRPVVFVTRKKLVNAIQQKLSKLKGEPGWVTIHGMAGCGKSVLAAEAVRDHSLLEGCFPGGVHWVSVGKQDKSGLLMKLQNLCTRLDQDESFSQRLPLNIEEAKDRLRILMLRKHPRSLLILDDVWDSWVLKAFDSQCQILLTTRDKSVTDSVMGPKYVVPVESSLGKEKGLEILSLFVNMKKADLPEQAHSIIKECKGSPLVVSLIGALLRDFPNRWEYYLKQLQNKQFKRIRKSSSYDYEALDEAMSISVEMLREDIKDYYTDLSILQKDVKVPTKVLCILWDMETEEVEDILQEFVNKSLLFCDRNGKSFRYYLHDLQVDFLTEKNCSQLQDLHKKIITQFQRYHQPHTLSPDQEDCMYWYNFLAYHMASAKMHKELCALMFSLDWIKAKTELVGPAHLIHEFVEYRHILDEKDCAVSENFQEFLSLNGHLLGRQPFPNIVQLGLCEPETSEVYQQAKLQAKQEVDNGMLYLEWINKKNITNLSRLVVRPHTDAVYHACFSEDGQRIASCGADKTLQVFKAETGEKLLEIKAHEDEVLCCAFSTDDRFIATCSVDKKVKIWNSMTGELVHTYDEHSEQVNCCHFTNSSHHLLLATGSSDCFLKLWDLNQKECRNTMFGHTNSVNHCRFSPDDKLLASCSADGTLKLWDATSANERKSINVKQFFLNLEDPQEDMEVIVKCCSWSADGARIMVAAKNKIFLFDIHTSGLLGEIHTGHHSTIQYCDFSPQNHLAVVALSQYCVELWNTDSRSKVADCRGHLSWVHGVMFSPDGSSFLTSSDDQTIRLWETKKVCKNSAVMLKQEVDVVFQENEVMVLAVDHIRRLQLINGRTGQIDYLTEAQVSCCCLSPHLQYIAFGDENGAIEILELVNNRIFQSRFQHKKTVWHIQFTADEKTLISSSDDAEIQVWNWQLDKCIFLRGHQETVKDFRLLKNSRLLSWSFDGTVKVWNIITGNKEKDFVCHQGTVLSCDISHDATKFSSTSADKTAKIWSFDLLLPLHELRGHNGCVRCSAFSVDSTLLATGDDNGEIRIWNVSNGELLHLCAPLSEEGAATHGGWVTDLCFSPDGKMLISAGGYIKWWNVVTGESSQTFYTNGTNLKKIHVSPDFKTYVTVDNLGILYILQTLE
What is called stoichiometry N is a count of units in the complex or per binding partner. As to B1, the stoichiometry N came out at 7.

The values are drawn from PMC2874686.
